Experimental data: the supplement of paper PMC12042874
± gives the uncertainty stated by the source.

experiment: amyloid nucleation score (Sup35N fusion, yeast selection) (log enrichment); library NNK1; higher = more nucleation; inactive = no reads after selection
Summary of the method: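 The nucleation score is a DiMSum log enrichment of output over input reads, centred on the mode score of non-aggregating sequences. Sequences under 100 input reads were excluded, and reads came from Illumina sequencing of plasmid inserts. Psi-negative yeast expressing Sup35N fused to peptides of 20 random codons were induced with 100 μM copper sulfate for 24 hours and grown 7 days at 30°C on medium lacking adenine and uracil. Random libraries had three technical output replicates.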

| Substance | amyloid nucleation score |
| --- | --- |
| SNCVIVSQLKITDA | -0.184 ± 0.44 |
| SNDKHKIRIYAGYFFVQRGC | 0.312 ± 0.37 |
| SNFKK | -1.06 ± 0.64 |
| SNFLHCIVIILWLCFNL | 0.53 ± 0.71 |
| SNGCPFDTIDQAKVGTVV | 0.861 ± 0.68 |
| SNGRFWYMADSVST | inactive |
| SNIASNKKVIMINHFKGFSL | 3.58 ± 0.057 |
| SNKDLKSLTICRSTQHWTVL | 0.095 ± 0.27 |
| SNLRSVMKRNYTVRLFCVG | inactive |
| SNNHQFFCDTFDIGWWEVGR | -1.63 ± 2.4 |
| SNQRKYGAPVKSLWEIFKSE | 1.34 ± 0.93 |
| SNSFRLGGSNNYPMSSAPGL | -1.74 ± 2.4 |
| SNSLCETWSRWWKRMFTDTF | 0.179 ± 0.48 |
| SNSLTFYFSKCYTSCSNLLG | 6.079 ± 0.057 |
| SNSRGYSWRDTGTNLRGYPE | -0.238 ± 1.5 |
| SNSSVSW | 0.717 ± 0.57 |
| SNTEP | -0.487 ± 0.57 |
| SNVDSWFGRVTSA | -0.698 ± 0.33 |
| SPAFQWHLYPSA | 0.592 ± 0.87 |
| SPCWSHF | inactive |
| SPEGWYFRTTWLVA | inactive |
| SPFLSAFLSFLTSFYLIFMG | -0.164 ± 0.61 |
| SPFMGCLYNLLDLDDGS | -0.65 ± 0.51 |
| SQCSSLIHAIEMDRFVF | 0.276 ± 0.23 |
| SQKEFRKTAIKTHLMFRIHL | -0.258 ± 0.29 |

| Substance | amyloid nucleation score |
| --- | --- |
| SQRTWCLLGIGSTITRIHFG | 2.74 ± 0.23 |
| SQSRRVSGQQDGPQMYSNGP | -0.232 ± 0.36 |
| SQYDWLKLFSNVY | -0.175 ± 0.21 |
| SRASKYMYVWVVLITFHCLR | inactive |
| SRFKPWGGSFVGYCVLYGRL | -1.01 ± 0.71 |
| SRFMGTNN | 0.102 ± 0.84 |
| SRFPYKKSVRTDSGRMSM | -0.393 ± 0.86 |
| SRGFKPMPGQYFCKG | 0.165 ± 0.26 |
| SRGVQGMYDDYKDGGLLYLV | -0.228 ± 0.19 |
| SRLQLNWLQPRWY | 4.27 ± 0.077 |
| SRLYVCFALSSLSISRNNYG | 3.11 ± 0.22 |
| SRNRLFVRRVRLANSLSFNA | -0.226 ± 1.1 |
| SRPSQCYINAFMFSMFKSGN | inactive |
| SRRSENYFSGANRIGHGGST | 0.54 ± 0.4 |
| SRTTAVSYLGNGFVI | -0.573 ± 0.42 |
| SRTVVTYHQLTWHGVGYMV | 0.571 ± 1.2 |
| SRVFLCCAMCLRRNSGYGR | -0.362 ± 0.4 |
| SRVSLFGWSGFKFTSRDSWL | 3.51 ± 0.18 |
| SRWGPRL | -0.494 ± 0.71 |
| SRWKLGGGDL | 0.006 ± 0.64 |
| SRYQEYRFQMCMMECMRRLA | 0.115 ± 1 |
| SRYWSLYGGIIVVSRSRTGR | 0.45 ± 0.32 |
| SSCSYLGRDRMCFWPYFLTT | 0.016 ± 0.39 |
| SSDKLCAYFVREIWTQGAGW | 0.507 ± 0.54 |
| SSFARL | 1.12 ± 0.55 |

| Substance | amyloid nucleation score |
| --- | --- |
| SSFIWMNC | -0.377 ± 0.42 |
| SSFLASGL | -0.529 ± 1.3 |
| SSFRVGTIVTNSAWRWSPCW | 5.4 ± 0.062 |
| SSGFSTMYIK | -0.892 ± 2.1 |
| SSLGAIYGLINQRPA | 0.776 ± 1 |
| SSLLKWWDIVMKGEVIHGWC | -0.095 ± 0.47 |
| SSLRPRKCCWRKTRRLSKGG | 0.441 ± 0.67 |
| SSMNSWTDFFHFCST | 0.032 ± 0.97 |
| SSNSGYSWSFTAWMGLGMRR | -0.037 ± 1.7 |
| SSPVRGASKSSRGSTNVHAN | 0.29 ± 1.1 |
| SSRCY | 0.104 ± 0.85 |
| SSRNRV | -1.07 ± 0.59 |
| SSSEGRWMGYGP | -0.276 ± 0.53 |
| SSSHDSIVFVRRLPHYCRGF | 0.323 ± 0.43 |
| SSVARIIWKFCRFSTVGVCF | 0.858 ± 0.59 |
| SSVCGKL | -0.211 ± 0.7 |
| SSVPHFAGSVVASDPPLYRL | 0.949 ± 0.81 |
| SSVSPIHHRLYKTETPMWLT | -0.369 ± 0.58 |
| SSYAVSTSSPCLSATSARLK | 0.893 ± 0.98 |
| STAAVHCRMRTRFQLRRLRD | -0.086 ± 0.35 |
| STFAAFSNTVYASCQYLLNG | -1.14 ± 0.93 |
| STFSLTSRASHKVPQDRYFP | 0.353 ± 0.61 |
| STKSTQDSSSDFIAVCGKRE | 0.925 ± 1.1 |
| STLLYGLLAYWTYGFAWLFF | inactive |
| STLPMHRNMTLRRLSCVQSY | -0.069 ± 0.34 |

| Substance | amyloid nucleation score |
| --- | --- |
| STLSAYCPTILA | 0.171 ± 0.25 |
| STNECSLLMGDSCGHHRSHC | -0.171 ± 0.9 |
| STRYRPLNWYLTKPPVRFKM | -0.037 ± 0.56 |
| STSATPYFSFRKIFMASAAS | -0.029 ± 0.57 |
| STVAGRWNYCSVTLLCVGFF | 1.45 ± 0.31 |
| STVGPMWVWTTTLAKNAIPK | 0.833 ± 0.57 |
| SVAIASLFFLSFNFVDIRLL | 0.832 ± 0.15 |
| SVARCASPMQSLSLRGRPEG | inactive |
| SVCMLPIDGMGEEVRVFPGV | -0.641 ± 0.62 |
| SVCVCLTIGCDFSIESVRCN | 2.64 ± 0.32 |
| SVDGL | -0.763 ± 0.2 |
| SVDLFSCRRIRLTLLEVFVT | -0.028 ± 0.41 |
| SVDLVMEYSCDGNTLDFRSL | 0.157 ± 1.4 |
| SVHSLMRDRISVPPRIVKNP | -0.008 ± 0.61 |
| SVIVMVCVGL | 1.78 ± 0.13 |
| SVLDFNNYMEIVAQVKGEDP | inactive |
| SVLNNLAAPDKARLRPCNWV | 0.379 ± 0.54 |
| SVNLGGHAGCCGCWAYGGFR | 0.851 ± 0.37 |
| SVNWRYRALFDVRPAPLASQ | -1.74 ± 2.4 |
| SVPRSGKALLLSMMQLGYDS | 0.09 ± 0.39 |
| SVRVPEHGRRWVSKGVG | -0.785 ± 1.1 |
| SVSILP | -0.34 ± 0.53 |
| SVSYRDCVVKILK | 4 ± 0.074 |
| SVTERCKLQSHHDMVGGM | 3.37 ± 0.13 |
| SVWLANCYGKYMGVVCYSKV | 0.537 ± 0.32 |

| Substance | amyloid nucleation score |
| --- | --- |
| SWCFN | 1.34 ± 0.59 |
| SWCHVKIVSYRVSEVR | 0.228 ± 0.32 |
| SWGFSMLRMEEWRMPVLFYS | -0.446 ± 0.58 |
| SWNNLIVVRSKVDGCAVSAG | 0.504 ± 0.73 |
| SWPLWEVMPRWGARDRGWVG | 0.553 ± 0.93 |
| SWPMTIQYGDSIWNWKMSVM | 0.388 ± 0.58 |
| SWPSPGVRQEQNCWCTRTFV | inactive |
| SWRSSTCSALVQGQYKA | -0.051 ± 0.32 |
| SWRVCVMFDTL | -0.987 ± 1.1 |
| SWSITPNKKFDKTVSFQYHD | inactive |
| SWVNRPYWSPGDTTVWYGC | 1.06 ± 0.52 |
| SYESSLNGRISFRNGERLLC | 0.115 ± 0.42 |
| SYFGYNVIMEIHTI | -0.122 ± 0.31 |
| SYFRREDCFVFKVITLFIMS | -0.675 ± 0.46 |
| SYGSVCNDNQSNRRYVHIHM | 2.89 ± 0.22 |
| SYKLVRTLNG | inactive |
| SYLGSAAIYVCLAGRPSGQR | -0.725 ± 1.2 |
| SYLHMFTMFV | -0.654 ± 0.52 |
| SYLQGELTDDSMTSFFKGM | -1.3 ± 1.4 |
| SYLYTVNLFDFYCCRLRGST | 3.99 ± 0.1 |
| SYMNGKWMSMWVRLWGCLAF | 0.004 ± 0.48 |
| SYMSLAFIS | 0.004 ± 0.69 |
| SYNQLDKCR | inactive |
| SYSCSVSRKEFSIGVGEHEG | -0.44 ± 0.5 |
| SYSYIRLDNFSMFIYFADCS | 3.92 ± 0.066 |

| Substance | amyloid nucleation score |
| --- | --- |
| SYSYRLQPFIAMLLGSFL | -1.04 ± 2.7 |
| SYWKNTVSCYVFFGMSRSRT | -0.634 ± 1.4 |
| SYYHRFSRIGMRSLGQEQCY | inactive |
| SYYNSVWTRYECAVVWT | 0.413 ± 1.1 |
| SYYYHV | 1.17 ± 0.66 |
| TAALFLAMLGDYVVSNMWTT | inactive |
| TAGCICPCKQAVYGICQSRT | -0.447 ± 0.71 |
| TAGFPLCYNCYEKP | -0.625 ± 0.35 |
| TAKRLAT | 0.21 ± 0.8 |
| TATDPLLSYGAHL | -0.354 ± 0.31 |
| TAVIKLSCLSLFMNSIMLVY | 2.59 ± 0.12 |
| TAYIIKHSFWLGPFNLGSLM | 3.88 ± 0.12 |
| TAYSNG | -0.814 ± 0.74 |
| TAYVLLWTRTVFVFPEVHTF | 0.887 ± 0.43 |
| TCCRRVLSMEQQDTLVYWQY | -0.585 ± 1.7 |
| TCHLIL | -0.872 ± 0.34 |
| TCKTHHRGTPGATVFPKDTA | 0.17 ± 0.45 |
| TCNHYNRVVFQSNVIYLIHV | 2.77 ± 0.15 |
| TCNRHSDTEGLC | -1.13 ± 0.66 |
| TCRCTKLTSAYMLRVWSVQF | -0.332 ± 0.55 |
| TCSSLRSLLWSCVVRALLWT | -0.528 ± 1.2 |
| TDAPHTCWLFFLYSVSFLIV | -0.204 ± 0.43 |
| TDIIFIVRYSVVLVSLCSKC | -0.343 ± 0.69 |
| TDLNLVMKKGSYVGCSSSCV | -0.605 ± 0.24 |
| TDQCGWGTVRRSAETSLGQL | 0.77 ± 0.78 |

| Substance | amyloid nucleation score |
| --- | --- |
| TDSSREGVNLHKLLFTFAMR | 0.137 ± 1.1 |
| TDYRFTRVWRRGVARS | 0.707 ± 0.55 |
| TEEFYPARSCMK | -1.87 ± 1.3 |
| TEGPSN | inactive |
| TESPRCRVPGVELPD | -0.136 ± 0.67 |
| TFCCIVSFF | 7.199 ± 0.049 |
| TFFYKDSDRDSCMGMLLIVC | 0.295 ± 0.44 |
| TFGSETESMLNTKYSSGCVG | 0.067 ± 0.55 |
| TFGVVEFSRNRGMSLCETLN | 0.386 ± 0.42 |
| TFKYFDSLTLPDLYIVVHGS | 0.037 ± 0.2 |
| TFLQFTRYFWLTTYNKGSS | inactive |
| TFLYKKLTFEVVWGCLIASE | -0.041 ± 0.84 |
| TFNLVLGLSWNPDMFGDKGV | 1.2 ± 0.41 |
| TFSGFYGVYYNQILVGSLIQ | inactive |
| TFTCVITSGCDLYPLLGHIS | 0.9 ± 0.4 |
| TFVLRCFSRCDGAITFQTRP | 1.14 ± 0.2 |
| TFWTLVQQATVKHMLYGTFL | -0.663 ± 1.9 |
| TFWVGEKSRVGSVPFQYLRL | -0.152 ± 0.31 |
| TFYEHMVCGRHQSQAVWLVK | 0.169 ± 0.6 |
| TGDLVTLGGVGL | 0.309 ± 0.42 |
